According to paper doi:10.1101/2024.10.23.619877:

Target: 20S proteasome (human housekeeping 20S core) (human) (UniProt P60900)
Test: AFM imaging with morphometric analysis of single particles

Sequence of UniProt P60900 (P60900 whole entry, looked up): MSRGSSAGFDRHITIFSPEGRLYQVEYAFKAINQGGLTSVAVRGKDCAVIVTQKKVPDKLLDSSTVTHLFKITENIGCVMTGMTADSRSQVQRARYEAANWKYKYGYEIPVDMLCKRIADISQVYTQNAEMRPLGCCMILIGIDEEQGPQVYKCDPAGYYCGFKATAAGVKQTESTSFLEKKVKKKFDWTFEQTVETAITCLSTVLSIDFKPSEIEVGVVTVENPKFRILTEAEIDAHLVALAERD

19S regulatory particle (complex)
percent of particles that are 26S proteasomes (with 2 µM Aβ42 oligomers): 52.9% | percent of particles that are 26S proteasomes (without Aβ): 75.8%
